Results as given in IntAct's records for PubMed 14528310.

Target: Homer1, Q9Z214-1
Sequence (Q9Z214 whole entry): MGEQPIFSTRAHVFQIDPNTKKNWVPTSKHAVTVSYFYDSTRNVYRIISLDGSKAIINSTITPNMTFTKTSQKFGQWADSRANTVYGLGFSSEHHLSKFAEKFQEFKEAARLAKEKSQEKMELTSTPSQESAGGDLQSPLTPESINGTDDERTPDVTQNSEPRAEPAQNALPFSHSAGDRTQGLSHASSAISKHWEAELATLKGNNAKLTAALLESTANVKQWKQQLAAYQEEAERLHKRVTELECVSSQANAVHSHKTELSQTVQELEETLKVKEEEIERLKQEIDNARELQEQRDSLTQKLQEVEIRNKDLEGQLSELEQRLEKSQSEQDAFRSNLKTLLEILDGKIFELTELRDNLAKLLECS

Question: Which “effect of a mutation on the interaction” value does the source give for “Arf-GAP with GTPase, ANK repeat and PH domain-containing protein 2 (Rattus norvegicus (Rat)), Q8CGU4 P187L” here?
Answer: disrupting interaction
